pKd: −log10 of the molar value. Values joined by “and” are separate entries in the source; they are usually repeats but may differ in a detail not shown here. Equal entries are not always repeated.
Experiments:
[1] = molecular target: fibrinogen fragment D (human); experiment: fluorescence polarisation; competitive fluorescence anisotropy; unlabeled construct titrated into mixtures of fixed [5F]PR–(R1 → R7) with two frag D concentrations; cubic equation, fit together with the direct titrations
[2] = molecular target: fibrinogen fragment D (human); experiment: native gel or EMSA; incubated 30 min at 25 °C in 50 mM Hepes, 110 mM NaCl, 5 mM CaCl2, 1 mg/ml PEG-8000, 10 μM FFR-CK and FPR-CK with molar excess of frag D; 6% Tris–glycine gel without SDS, 4 °C; GelCode Blue and fluorescence
[3] = molecular target: fibrinogen fragment D (human); experiment: fluorescence polarisation; fluorescence anisotropy; [5F]PR–(R1 → R7) titrated with frag D; 'the same buffer'; quadratic fit, n not fixed; independent, noncooperative sites assumed
[4] = molecular target: fibrinogen fragment D (human); experiment: other fluorescence titration; fluorescein-labeled construct at fixed concentration titrated with frag D; fluorescence intensity; 25 °C; 50 mM Hepes, 110 mM NaCl, 5 mM CaCl2, 1 mg/ml PEG-8000, pH 7.4, 10 μM FPR-CK; quadratic fit; n fixed to 1 for the Ala constructs and MP
[5] = molecular target: fibrinogen fragment D (human); experiment: other fluorescence titration; fluorescence intensity; 20 mM sodium phosphate, 150 mM NaCl, 1 mg/ml PEG-8000, 10 μM FPR-CK, pH 7.0; n fixed to 1
[6] = molecular target: fibrinogen fragment D (human); experiment: other fluorescence titration; fluorescence intensity; 20 mM sodium phosphate, 150 mM NaCl, 1 mg/ml PEG-8000, 10 μM FPR-CK, pH 7.4; n fixed to 1
[7] = molecular target: staphylocoagulase SC(1–660), full-length (Staphylococcus aureus Newman D2 Tager 104); experiment: native gel or EMSA; incubated 30 min at 25 °C in 50 mM Hepes, 110 mM NaCl, 5 mM CaCl2, 1 mg/ml PEG-8000, 10 μM FFR-CK and FPR-CK with molar excess of frag D; 6% Tris–glycine gel without SDS, 4 °C; GelCode Blue and fluorescence
[8] = molecular target: fibrinogen fragment D fragment D (Homo sapiens) (UniProt P02671); settings: cited from earlier work
fibrinogen fragment D fragment D (Homo sapiens), sequence (P02671 20-866, chain 1 of 3): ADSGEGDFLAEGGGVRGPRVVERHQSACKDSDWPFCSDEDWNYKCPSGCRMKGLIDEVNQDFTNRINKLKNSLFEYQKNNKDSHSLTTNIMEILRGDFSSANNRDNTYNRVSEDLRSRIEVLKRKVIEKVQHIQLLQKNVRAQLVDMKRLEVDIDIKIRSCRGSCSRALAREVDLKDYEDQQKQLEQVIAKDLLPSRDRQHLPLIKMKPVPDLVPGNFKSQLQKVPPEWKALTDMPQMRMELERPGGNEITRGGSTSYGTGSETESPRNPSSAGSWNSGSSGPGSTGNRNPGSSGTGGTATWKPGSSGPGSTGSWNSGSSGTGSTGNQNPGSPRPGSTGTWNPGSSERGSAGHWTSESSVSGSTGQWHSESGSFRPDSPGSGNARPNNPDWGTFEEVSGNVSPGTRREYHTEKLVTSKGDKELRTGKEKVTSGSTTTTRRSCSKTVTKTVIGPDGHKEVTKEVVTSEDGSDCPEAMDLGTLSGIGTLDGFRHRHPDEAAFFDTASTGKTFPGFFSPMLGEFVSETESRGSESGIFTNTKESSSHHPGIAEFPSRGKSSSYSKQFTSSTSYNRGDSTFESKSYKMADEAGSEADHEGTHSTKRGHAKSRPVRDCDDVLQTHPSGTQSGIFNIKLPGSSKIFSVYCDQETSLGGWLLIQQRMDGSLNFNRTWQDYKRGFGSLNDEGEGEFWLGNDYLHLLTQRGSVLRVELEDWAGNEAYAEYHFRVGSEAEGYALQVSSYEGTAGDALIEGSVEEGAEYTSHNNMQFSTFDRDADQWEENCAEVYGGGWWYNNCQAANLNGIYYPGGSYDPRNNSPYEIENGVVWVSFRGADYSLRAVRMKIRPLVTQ
fibrinogen fragment D fragment D (Homo sapiens), sequence (P02675 31-491, chain 2 of 3, further chain): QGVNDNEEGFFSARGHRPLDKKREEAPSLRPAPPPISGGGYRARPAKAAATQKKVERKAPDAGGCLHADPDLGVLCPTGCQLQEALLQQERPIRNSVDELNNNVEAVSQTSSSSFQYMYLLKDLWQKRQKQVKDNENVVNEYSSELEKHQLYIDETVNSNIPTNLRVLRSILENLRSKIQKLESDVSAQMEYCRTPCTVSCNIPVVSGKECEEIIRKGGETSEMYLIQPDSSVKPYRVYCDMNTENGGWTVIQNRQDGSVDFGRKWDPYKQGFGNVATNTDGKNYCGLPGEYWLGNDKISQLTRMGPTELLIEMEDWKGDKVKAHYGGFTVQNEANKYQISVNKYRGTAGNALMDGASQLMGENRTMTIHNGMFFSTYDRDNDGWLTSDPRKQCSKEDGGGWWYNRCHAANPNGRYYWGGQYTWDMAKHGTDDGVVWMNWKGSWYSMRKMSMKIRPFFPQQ
fibrinogen fragment D fragment D (Homo sapiens), sequence (P02679 27-453, chain 3 of 3, further chain): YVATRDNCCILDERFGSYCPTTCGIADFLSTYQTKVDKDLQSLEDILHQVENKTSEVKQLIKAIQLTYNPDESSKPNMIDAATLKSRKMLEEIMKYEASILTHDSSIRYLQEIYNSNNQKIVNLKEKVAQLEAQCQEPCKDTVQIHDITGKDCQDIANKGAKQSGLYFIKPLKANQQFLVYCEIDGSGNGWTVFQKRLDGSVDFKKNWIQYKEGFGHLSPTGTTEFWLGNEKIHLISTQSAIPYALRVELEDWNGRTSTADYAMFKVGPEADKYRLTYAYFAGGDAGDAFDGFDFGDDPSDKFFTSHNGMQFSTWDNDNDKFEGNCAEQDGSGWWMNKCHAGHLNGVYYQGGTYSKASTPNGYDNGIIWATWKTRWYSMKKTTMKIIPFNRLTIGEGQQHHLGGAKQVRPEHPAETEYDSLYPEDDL

Substance: PR–R1R2R3 (unlabeled competitor) (domain or fragment)
- stoichiometry N (mol frag D/mol repeat) [1]: 3.3 and 3.5 and 2.5

Substance: PR–R1R6R7 (unlabeled competitor) (domain or fragment)
- pKd [1]: 8.10
- stoichiometry N (mol frag D/mol repeat) [1]: 3

Substance: PR–R3R4R7 (unlabeled competitor) (domain or fragment)
- pKd [1]: 7.38
- stoichiometry N (mol frag D/mol repeat) [1]: 2.8

Substance: PR–R3R6R7 (unlabeled competitor) (domain or fragment)
- pKd [1]: 7.38
- stoichiometry N (mol frag D/mol repeat) [1]: 3

Substance: [5F]PR–(R1 → R7), full-length C-terminal repeat construct (domain or fragment)
- stoichiometry N (frag D per construct) [2]: 7
- stoichiometry N (mol frag D/mol repeat) [3]: 5.2 and 4.8 and 5.1

Substance: [5F]PR–R1 (domain or fragment)
- stoichiometry N (mol frag D/mol repeat) [4]: 1

Substance: [5F]PR–R1R2R3 (domain or fragment)
- stoichiometry N (frag D per construct) [2]: 3

Substance: [5F]PR–R1R6R7 (domain or fragment)
- stoichiometry N (frag D per construct) [2]: 3

Substance: [5F]PR–R2 (domain or fragment)
- pKd [4]: 6.89
- stoichiometry N (mol frag D/mol repeat) [4]: 0.9

Substance: [5F]PR–R3 (domain or fragment)
- pKd [4]: 7.00
- stoichiometry N (mol frag D/mol repeat) [4]: 1.1

Substance: [5F]PR–R6 (domain or fragment)
- pKd [4]: 6.94
- stoichiometry N (mol frag D/mol repeat) [4]: 0.8

Substance: [5F]PR–R7 (domain or fragment)
- pKd [5]: 5.52
- pKd [6]: 7.57
- pKd [4]: 6.95
- stoichiometry N (mol frag D/mol repeat) [4]: 0.8

Substance: [5F]PR–R7-SETNA (domain or fragment)
- pKd [4]: 6.92

Substance: [5F]ProT, prothrombin labeled at the active site with 5-fluorescein (natural protein)
- stoichiometry N [7]: 1 mol/mol

Substance: staphylocoagulase PR-R1 (from UniProt P07767)
- pKd [8]: 7.44

Substance: staphylocoagulase SC(1–660), full-length (natural protein)
- stoichiometry N (frag D per SC(1–660)) [2]: 5 and 6
